Here are results for 1 molecule from patent US20200277405A1, “COMPOSITION FOR ANTIBODY-DRUG CONJUGATE DIRECTED AGAINST TUMOR-CELL ASSOCIATED POLYSIALIC ACID” (Cornell University, priority 2019, published 2020).

In one data set the test system is ST8SiaII KO SW2 cells. Briefly: Flow cytometry binding to ST8SiaII knockout cells. It counts as cell-based, human. From the text: FIGS. 8A-8C depict binding of polySia-specific mAb to ST8SiaII and ST8SiaIV knockout cell lines. […] Data are the geometric mean fluorescence intensity (MFI), with the values reported as the average of three replicates and the error represented as the standard deviation of the mean. […] In the ST8SiaII KO SW2 cells, 73% of the population (FL1-H-) binds mo735 below the level of the wild-type SW2 cells. […] In the ST8SiaIV KO SW2 cells, 68% of the population (FL1-H-) binds mo735 below the level of the wild-type SW2 cells.
CRISPR guide RNAs targeting ST8SiaII (crRNA1: […]; SEQ ID NO: 5) and ST8Sia4 (crRNA1: […]; SEQ ID NO: 6) were purchased from Genscript in the pLentiCRISPR v2 vector. Knockout cell lines were generated in SW2 cells using protocols described by Zhang and colleagues (Shalem et al., “Genome-Scale CRISPR-Cas9 Knockout Screening in Human Cells,” Science 343:84-7 (2014), which is hereby incorporated by reference in its entirety). Briefly, after lentiviral transduction, cells were maintained under selection with 1 μg/mL puromycin for at least 14 days prior to analysis by flow cytometry.
Cancer cells were trypsinized and collected with media, followed by three washes in PBS. […] Cells were washed three times, resuspended in 500 μL of 0.5% BSA in PBS, and analyzed on a BD FACSCalibur flow cytometer using Cell Quest Pro software (BD Biosciences).
(Flow cytometry measures light scatter and fluorescence of single cells or particles in a stream.)

The test system of another data set is SW2 cells. Briefly: Supplementary internalization assays. The class given is cell-based, human. The following applies: increases with concentration and time. From the text: FIGS. 11A-11D depict internalization of mo735 by polySia-expressing cancer cells. […] Trypan blue was used to quench extracellular fluorescence. […] Cell membranes were labeled with wheat germ agglutinin (WGA,) and nuclei were stained with Hoescht. Scale bar, 10 μm. […] Cell membranes were labeled with wheat germ agglutinin (WGA) and nuclei were stained with Hoescht. Scale bar, 10 μm. […] Images include external mo735 detected with anti-mouse AF488, internal mo735 detected with anti-mouse AF647, nuclei stained with Hoescht, and a merged image. Scale bar, 10 μm.
For supplementary internalization assays, AF488-labeled isotype and mo735 antibodies were incubated with trypsinized SW2 cells at various concentrations for 2 h. Upon measurement in the flow cytometer, the extracellular fluorescence was quenched using trypan blue (final concentration 0.2%). For each sample, the mean fluorescence intensity (MFI) of 10,000 cells was measured in triplicate. […] Antibody internalization was also assessed according to the protocol described by Schmitz and coworkers (Diestel et al., “NCAM is Ubiquitylated, Endocytosed and Recycled in Neurons,” J. Cell. Sci. 120:4035-49 (2007), which is hereby incorporated by reference in its entirety), cells were incubated for 1 or 4 h at 37° C. with 150 nM mo735 in cell culture media. […]

In another data set the test system is cultured neurons. The following applies: unconjugated antibody; cited from earlier work.

B1: mo735: well-known mouse-derived IgG2a monoclonal antibody 735 targeting polysialic acid (antibody, V domains shown)
VH: QIQLQQSGPELVRPGASVKISCKASGYTFTDYYIHWVKQRPGEGLEWIGWIYPGSGNTKYNEKFKGKATLTVDTSSSTAYMQLSSLTSEDSAVYFCARGGKFAMDYWGQGTSVTVSS
VL: DVVMTQTPLSLPVSLGDQASISCRSSQSLVHSNGNTYLYWYLQKPGQSPKPLIYRVSNRFSGVPDRFSGSGSGTDFTLKISRVEAEDLGVYFCFQGTHVPYTFGGGTRLEIK
On to B1, for which the “population (FL1-H-) binding below the level of wild-type SW2 cells” value in the data set with ST8SiaII KO SW2 cells was found to be 73%. Besides, in the data set with SW2 cells, the antibody internalization result is “comparable internalization”. In addition, the “complement-dependent cytotoxicity (CDC)” value in the data set on cultured neurons was “only limited complement-dependent cytotoxicity (CDC)”.
